The record followed here is patent publication US20230210943A1 (PEMI31 THERAPEUTICS, published 2023).

Experiment [1] addresses scavenger receptor CD-36 pulled down from macrophage membrane extracts or lysates (UniProt P16671 2-472). Put plainly: plate binding assay on CD-36 pulled down from macrophage membrane extracts.
The target of experiment [2] is T1, scavenger receptor SR-AI pulled down from macrophage membrane extracts or lysates (UniProt P21757 1-451).
T1 construct: also called SR-A1
T1 sequence (looked up): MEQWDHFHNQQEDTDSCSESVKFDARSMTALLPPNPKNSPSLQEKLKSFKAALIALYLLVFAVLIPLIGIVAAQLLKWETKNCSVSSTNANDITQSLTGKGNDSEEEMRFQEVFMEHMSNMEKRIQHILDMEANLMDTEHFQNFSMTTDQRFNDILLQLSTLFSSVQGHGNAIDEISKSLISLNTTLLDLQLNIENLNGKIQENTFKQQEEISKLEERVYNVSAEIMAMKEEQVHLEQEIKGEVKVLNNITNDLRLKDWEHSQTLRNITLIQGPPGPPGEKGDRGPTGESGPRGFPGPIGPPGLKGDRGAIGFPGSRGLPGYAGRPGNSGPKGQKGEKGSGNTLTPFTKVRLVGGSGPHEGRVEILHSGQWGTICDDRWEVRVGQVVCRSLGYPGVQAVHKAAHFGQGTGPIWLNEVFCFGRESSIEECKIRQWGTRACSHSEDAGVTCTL
Put plainly: plate binding assay on SR-AI pulled down from macrophage membrane extracts.

scavenger receptor CD-36 pulled down from macrophage membrane extracts or lysates, sequence (P16671 2-472 limits assumed): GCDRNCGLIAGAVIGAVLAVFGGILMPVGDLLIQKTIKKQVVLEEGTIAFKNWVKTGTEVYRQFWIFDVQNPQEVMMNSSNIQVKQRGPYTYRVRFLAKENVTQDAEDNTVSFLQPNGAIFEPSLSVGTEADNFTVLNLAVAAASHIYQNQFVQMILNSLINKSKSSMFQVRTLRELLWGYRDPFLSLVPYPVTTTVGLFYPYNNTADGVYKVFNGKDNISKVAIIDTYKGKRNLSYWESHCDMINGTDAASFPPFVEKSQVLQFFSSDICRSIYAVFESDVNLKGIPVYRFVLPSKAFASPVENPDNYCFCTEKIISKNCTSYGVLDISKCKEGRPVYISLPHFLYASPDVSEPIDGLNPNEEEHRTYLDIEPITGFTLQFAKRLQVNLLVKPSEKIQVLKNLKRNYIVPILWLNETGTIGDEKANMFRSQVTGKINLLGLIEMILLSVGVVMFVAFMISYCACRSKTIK

B1: HIS-tagged HSP27 polypeptide fragment rC1 (other)
chain: MHHHHHHHHDDDDKGGDRWRVSLDVNHFAPDELTVKTKDGVVEITGKHEERQDEHGYISRCFTRKYTLPPGVDPTQVSSSLSPEGTLTVEAPMPKLSTQSNEITIPVTFESRAQLGGPEAAKSDETAAK
notes: also called HSP27 rC1; HSP27 fragment rC1
Turning to B1, the binding result in experiment [1] and in experiment [2] was “no binding” in each case.
